This note sets out measurements from patent US20190113512A1.

In assay [1] the target is fluorescent reagents used to detect binding activity.
For assay [2] the target is unchanged. The source holds these as a separate data set.

“And” between values parts separate entries of the source, which are not always exact repeats. Equal values may be shown once.

B1: rcSso7d.H4.9 (designed binder)
chain: MATVKFTYQGEEKQVDISKIKYVKRIGQYISFNYDEGGGAHGHGIVSEKDAPKELLQMLEKQ
B1: the Secondary control signal in assay [1] is 0%.

B2: rcSso7d.H7.1 (designed binder)
chain: MATVKFTYQGEEKQVDISKIKYVYRWGQRIWFRYDEGGGAIGRGRVSEKDAPKELLQMLEKQ
On to B2, for which, in assay [1], the Secondary control signal was 1.8%.

B3: rcSso7d.H1BA.6 (designed binder)
chain: MATVKFTYQGEEKQVDISKIKDVWRWGQWIDFIYDEGGGADGWGRVSEKDAPKELLQMLEKQ
The molecule B3 showed a Secondary control signal in assay [1] of 0.5%.

B4: rcSso7d.H4.4 (designed binder)
chain: MATVKFTYQGEEKQVDISKIKSVKRNGQSIDFDYDEGGGAAGEGKVSEKDAPKELLQMLEKQ
In assay [1], B4 returned a Secondary control signal of 0%.

B5: rcSso7d.H4.3 (designed binder)
chain: MATVKFTYQGEEKQVDISKIKHVWRRGQNIYFRYDEGGGAWGAGAVSEKDAPKELLQMLEKQ
On to B5, for which the Secondary control signal in assay [1] came to 0%.

B6: rcSso7d.H4.7 (designed binder)
chain: MATVKFTYQGEEKQVDISKIKYVWRHGQHIAFRYDEGGGAHGWGSVSEKDAPKELLQMLEKQ
Molecule B6 showed a Secondary control signal in assay [1] of 0%.

B7: rcSso7d.H4.5 (designed binder)
chain: MATVKFTYQGEEKQVDISKIKGVYRHGQSIWFRYDEGGGAWGWGIVSEKDAPKELLQMLEKQ
For B7, the Secondary control signal in assay [1] is 0.6%.

B8: rcSso7d.H4.8 (designed binder)
chain: MATVKFTYQGEEKQVDISKIKDVWRHGQHIIFSYDEGGGAYGAGHVSEKDAPKELLQMLEKQ
In assay [1], B8 had a Secondary control signal of 0%.

B9: rcSso7d.Rv1656 (yeast-surface displayed) (designed binder)
chain: MATVKFTYQGEEKQVDISKIKWVRRYGQYIGFSYDEGGGAWGKGYVSEKDAPKELLQMLEKQ
As to B9, the Secondary control signal in assay [1] is 0.6% and 2.3% and 0%. For the same molecule, the Quadrant % Q1 in assay [2] turned out to be 0.1%.

B10: rcSso7d.H1BA.1 (designed binder)
chain: MATVKFTYQGEEKQVDISKIKHVRRWGQYIIFAYDEGGGAYGGGWVSEKDAPKELLQMLEKQ
In assay [1], B10 gave a Secondary control signal of 6%.

B11: rcSso7d.H4.6 (designed binder)
chain: MATVKFTYQGEEKQVDISKIKSVHRYGQKIYFDYDEGGGAIGKGHVSEKDAPKELLQMLEKQ
In turn, B11 displayed a Secondary control signal in assay [1] of 0%.

B12: rcSso7d.H1BA.5 (designed binder)
chain: MATVKFTYQGEEKQVDISKIKYVRRYGQYIGFIYDEGGGAWGKGYVSEKDAPKELLQMLEKQ
With B12, the Secondary control signal in assay [1] is 0.9%.

B13: rcSso7d.H6BA.2 (designed binder)
chain: MATVKFTYQGEEKQVDISKIKWVYRWGQYIIFAYDEGGGAAGKGSVSEKDAPKELLQMLEKQ
Molecule B13 had a Secondary control signal in assay [1] of 7.3%.

B14: rcSso7d.H6BA.1 (designed binder)
chain: MATVKFTYQGEEKQVDISKIKWVYRYGQYIIFGYDEGGGAKGNGYVSEKDAPKELLQMLEKQ
In the case of B14, in assay [1], the Secondary control signal was found to be 1.5%.

B15: rcSso7d.H1BA.4 (designed binder)
chain: MATVKFTYQGEEKQVDISKIKNVYRWGQYIIFSYDEGGGAYGWGWVSEKDAPKELLQMLEKQ
The molecule B15 registered a Secondary control signal in assay [1] of 0%.

B16: rcSso7d.H6BA.3 (designed binder)
chain: MATVKFTYQGEEKQVDISKIKRVIRAGQSIIFSYDEGGGAIGHGWVSEKDAPKELLQMLEKQ
In assay [1], B16 showed a Secondary control signal of 1.7%.

B17: rcSso7d.H2BA.1 (designed binder)
chain: MATVKFTYQGEEKQVDISKIKRVIRYGQAIAFAYDEGGGARGYGWVSEKDAPKELLQMLEKQ
In assay [1], B17 showed a Secondary control signal of 3.2%.
